{
  "source": "patent US20070010432A1",
  "about": "“Heat shock protein 90 activator” (priority 2002, published 2007)",
  "key": {"[1]": {"molecular_target": "T1, Yeast Hsp90 (Saccharomyces cerevisiae, UniProt P02829)", "T1 construct": "made in house; host or cells: E. coli", "T1 sequence (P02829 whole entry)": "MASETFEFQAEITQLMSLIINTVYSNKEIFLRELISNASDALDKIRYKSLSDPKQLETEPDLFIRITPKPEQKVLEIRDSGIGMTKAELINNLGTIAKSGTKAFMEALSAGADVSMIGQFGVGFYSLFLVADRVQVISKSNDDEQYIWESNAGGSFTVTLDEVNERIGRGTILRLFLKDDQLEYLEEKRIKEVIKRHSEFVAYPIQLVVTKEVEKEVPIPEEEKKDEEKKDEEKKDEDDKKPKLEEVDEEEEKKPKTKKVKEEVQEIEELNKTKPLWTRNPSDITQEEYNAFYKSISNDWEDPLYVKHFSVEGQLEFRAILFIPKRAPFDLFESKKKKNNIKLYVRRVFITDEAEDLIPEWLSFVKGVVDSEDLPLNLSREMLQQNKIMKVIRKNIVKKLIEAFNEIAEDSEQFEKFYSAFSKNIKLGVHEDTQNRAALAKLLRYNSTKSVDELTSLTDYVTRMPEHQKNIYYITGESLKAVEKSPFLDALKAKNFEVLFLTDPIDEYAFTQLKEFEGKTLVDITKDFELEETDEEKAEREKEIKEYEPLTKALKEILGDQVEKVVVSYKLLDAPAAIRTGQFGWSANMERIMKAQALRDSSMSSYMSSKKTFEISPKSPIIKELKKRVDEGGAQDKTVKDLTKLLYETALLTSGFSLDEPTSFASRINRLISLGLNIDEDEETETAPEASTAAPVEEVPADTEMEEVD", "assay": "Malachite green colorimetric ATPase assay, yeast Hsp90", "format": "biochemical", "description": "The activity of enzymes that release inorganic phosphate can be measured using the reaction of the cationic dye, malachite green, with a phosphomolybdate complex to generate a blue-green colour with an absorbance maximum at 610 nm (Cogan, E. B. et al (1999) Anal. Biochem. 271, 29-35; Baykov, A. A. et al (1988) Anal. Biochem. 171, 266-270; Harder, K. W. et al (1994) Biochem. J. 298, 395-401; Maehama, T. et al (2000) Anal. Biochem. 279, 248-250) as described above.\nChemicals are of the highest purity commercially available and all aqueous solutions are made up in AR water. • 1. For the full length Aha1, an assay buffer of 45 mM Tris-HCl pH 7.5, 9 mM KCl, 3 mM MgCl may be used. For the C-and N-terminal domain of Aha1 or the Hch1 homologue, an 20 mM Tris-HCl pH 7.5, 4 mM KCl, 1.2 mM MgCl. An assay buffer of 100 mM Tris-HCl, pH 7.4, 20 mM KCl, 6 mM MgCl2 may also be used. Stored at 4° C. • 2. 0.0812% (w/v) malachite green (Sigma M 9636). Stored at room temperature. • 3. […]"}, "[2]": {"molecular_target": "Human hsp90 beta protein (human) (UniProt P08238)"}, "[3]": {"molecular_target": "Hsp90 (species not stated; FIGS. 4 to 6)"}, "[4]": {"molecular_target": "T2, Human Hsp90 (Homo sapiens, UniProt P08238)", "T2 construct": "made in house; host or cells: E. coli BL21 (DE3) pLysS (stated for Aha1 only)", "T2 sequence (P08238 whole entry)": "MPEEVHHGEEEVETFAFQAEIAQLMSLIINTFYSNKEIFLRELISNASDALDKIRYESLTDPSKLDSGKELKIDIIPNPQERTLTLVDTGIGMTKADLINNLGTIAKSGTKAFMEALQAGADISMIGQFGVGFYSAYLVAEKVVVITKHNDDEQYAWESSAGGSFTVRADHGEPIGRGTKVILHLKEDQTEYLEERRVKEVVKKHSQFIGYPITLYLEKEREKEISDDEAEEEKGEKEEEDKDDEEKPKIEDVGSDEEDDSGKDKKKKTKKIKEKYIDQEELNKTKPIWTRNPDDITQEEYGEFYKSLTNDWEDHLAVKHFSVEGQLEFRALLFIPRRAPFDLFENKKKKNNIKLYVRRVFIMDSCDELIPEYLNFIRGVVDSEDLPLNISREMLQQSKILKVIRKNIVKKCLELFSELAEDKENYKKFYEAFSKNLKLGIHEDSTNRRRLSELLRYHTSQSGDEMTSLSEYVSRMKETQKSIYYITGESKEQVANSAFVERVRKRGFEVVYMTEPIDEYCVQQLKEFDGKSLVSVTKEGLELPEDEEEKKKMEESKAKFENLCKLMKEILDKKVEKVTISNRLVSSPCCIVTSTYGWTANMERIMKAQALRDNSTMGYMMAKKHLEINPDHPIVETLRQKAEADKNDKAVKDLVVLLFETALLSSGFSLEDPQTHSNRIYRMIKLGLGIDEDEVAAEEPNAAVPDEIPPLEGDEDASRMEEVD", "assay": "Stimulation of human HSP90 ATPase activity by Aha1", "format": "biochemical", "method": "Each value is the mean±Sd of n=4 ATP at 0.6 mM.\nEach point is the mean±SD of n=4 ATP at 0.6 mM.\nChemicals are of the highest purity commercially available and all aqueous solutions are made up in AR water. • 1. For the full length Aha1, an assay buffer of 45 mM Tris-HCl pH 7.5, 9 mM KCl, 3 mM MgCl may be used. For the C-and N-terminal domain of Aha1 or the Hch1 homologue, an 20 mM Tris-HCl pH 7.5, 4 mM KCl, 1.2 mM MgCl. An assay buffer of 100 mM Tris-HCl, pH 7.4, 20 mM KCl, 6 mM MgCl2 may also be used. Stored at 4° C. • 2. 0.0812% (w/v) malachite green (Sigma M 9636). Stored at room temperature. • 3. 2.32% (w/v) polyvinyl alcohol USP (Sigma P 1097). Stored at room temperature. The polyvinyl alcohol dissolves in boiling water with difficulty and stirring for 2-3 h is required • 4. 5.72% (w/v) ammonium molybdate in 6M hydrochloric acid. Stored at room temperature. • 5. […] Stored at room temperature. • 6. ATP, disodium salt, special quality (Boehringer Mannheim 519979). Stored at 4° C. • 7. […]\nInitially, the reagent was a dark brown colour, but after standing at room temperature for about 2 h, this became a golden yellow colour and was ready for use. […]\nTo stop the incubation, 80 μl of the malachite green reagent was added to each well and the plate shaken again. […] The absorbance at 620 nm was measured using a suitable plate reader (e.g. Victor^2, PerkinElmer Life Sciences). […]"}, "[5]": {"molecular_target": "T3, Hsp90 (Saccharomyces cerevisiae, UniProt P02829)", "T3 construct": "made in house; host or cells: E. coli (if the yeast protein of the reagent list)", "T3 sequence (P02829 whole entry, the tested form may be a part)": "as the sequence (P02829 whole entry) above", "assay": "Effect of Aha1, Aha1 domains or Hch1 concentration on geldanamycin dependent ATPase activity of Hsp90", "format": "biochemical", "conditions": "for Effect on Hsp90 ATPase activity (in words): FIG. 5 and 6, 20 mM Tris pH 7.5, 4 mM KCl, 1.2 mM MgCl2", "method": "Half activation is shown to be at […] Aha1. 0.2 μM Aha1 was used in a buffer consisting of 45 mM Tris pH 7.5, 9 mM KCl, 3 mM MgCl2.\n2 μM Aha1 was used in a buffer consisting of 20 mM Tris pH 7.5, 4 mM KCl, 1.2 mM MgCl2.\nHch1 and truncated Aha1 polypeptides corresponding to the N and C terminal domains of full-length Aha1 were expressed and purified as described above. The N terminal domain polypeptide (nAha1) consisted of 162 aa from the N terminal MVVNNP to GNDIQV. The C terminal domain polypeptide (cAha1) consisted of the remainder of the Aha1 sequence.\nChemicals are of the highest purity commercially available and all aqueous solutions are made up in AR water. • 1. For the full length Aha1, an assay buffer of 45 mM Tris-HCl pH 7.5, 9 mM KCl, 3 mM MgCl may be used. For the C-and N-terminal domain of Aha1 or the Hch1 homologue, an 20 mM Tris-HCl pH 7.5, 4 mM KCl, 1.2 mM MgCl. An assay buffer of 100 mM Tris-HCl, pH 7.4, 20 mM KCl, 6 mM MgCl2 may also be used. Stored at 4° C. • 2. 0.0812% (w/v) malachite green (Sigma M 9636). Stored at room temperature. • 3. 2.32% (w/v) polyvinyl alcohol USP (Sigma P 1097). Stored at room temperature. The polyvinyl alcohol dissolves in boiling water with difficulty and stirring for 2-3 h is required • 4. 5.72% (w/v) ammonium molybdate in 6M hydrochloric acid. Stored at room temperature. • 5. […] Stored at room temperature. • 6. ATP, disodium salt, special quality (Boehringer Mannheim 519979). Stored at 4° C. • 7. E. coli expressed yeast HSP90 protein, purified >95% (10) and stored at −80° C. as 10 μl aliquots containing 0.5 mg of protein. Assay Protocol"}},
  "data": [
    {"molecule": "C=CCNC1=C2C[C@@H](C)C[C@H](OC)[C@H](O)[C@@H](C)/C=C(\\C)[C@H](OC(N)=O)[C@@H](OC)/C=C\\C=C(/C)C(=O)NC(=CC1=O)C2=O", "note": "[17AAG]", "values": [
      {"measurement": "Inhibition of yeast HSP90 ATPase activity (in words)", "setting": "[1]", "value": "potent inhibitors"}
    ]},
    {"molecule": "C[C@@H]1C[C@H]2O[C@@H]2/C=C\\C=C\\C(=O)Cc2c(Cl)c(O)cc(O)c2C(=O)O1", "note": "[Radicicol, radicicol]", "values": [
      {"measurement": "Inhibition of yeast HSP90 ATPase activity (in words)", "setting": "[1]", "value": "potent inhibitors"}
    ]},
    {"molecule": "Aha1 (YDR214W), full length (from UniProt Q12449)", "values": [
      {"measurement": "ATPase activity of human Hsp90 (malachite green assay of inorganic phosphate)", "setting": "[2]", "value": 2, "unit": "fold"},
      {"measurement": "Half maximal activation of Hsp90 (geldanamycin dependent ATPase activity)", "setting": "[3]", "value": "< 1", "unit": "µM"}
    ]},
    {"molecule": "Aha1: Aha1 (YDR214W) protein expressed in E. coli; co-activator stimulating Hsp90 ATPase activity", "values": [
      {"measurement": "Increase of the activity of human Hsp90 in the presence of Aha1", "setting": "[4]", "value": "approximately 2 fold"},
      {"measurement": "Effect on ATPase activity of increasing concentrations of human HSP90 (in words)", "setting": "[4]; FIG. 1, ATP 0.6 mM", "value": "significantly increase"},
      {"measurement": "EC50", "setting": "[5]; FIG. 4, text of results, read-out: Aha1 concentration for half maximal activation of Hsp90", "value": "< 1000", "unit": "nM"}
    ]},
    {"molecule": "Hch1: homologue of Aha1, expressed and purified like Aha1", "values": [
      {"measurement": "Effect on Hsp90 ATPase activity (in words)", "setting": "[5]", "value": "activate Hsp90 ATPase activity, but to a lesser extent than the full length Aha1 polypeptide"}
    ]},
    {"molecule": "C terminal domain of Aha1: truncated Aha1 polypeptide consisting of the remainder of the Aha1 sequence (protein) PESQVKSNYTRGNQKSSFTEIKDSASKPKKNALPSSTSTSAPVSSTNKVPQNGSGNSTSIYLEPTFNVPSSELYETFLDKQRILAWTRSAQFFNSGPKLETKEKFELFGGNVISELVSCEKDKKLVFHWKLKDWSAPFNSTIEMTFHESQEFHETKLQVKWTGIPVGEEDRVRANFEEYYVRSIKLTFGFGAVL", "values": [
      {"measurement": "Effect on Hsp90 ATPase activity (in words)", "setting": "[5]", "value": "little or no effect"}
    ]},
    {"molecule": "N terminal domain of Aha1: truncated Aha1 polypeptide of 162 aa from the N terminal MVVNNP to GNDIQV (protein) MVVNNPNNWHWVDKNCIGWAKEYFKQKLVGVEAGSVKDKKYAKIKSVSSIEGDCEVNQRKGKVISLFDLKITVLIEGHVDSKDGSALPFEGSINVPEVAFDSEASSYQFDISIFKETSELSEAKPLIRSELLPKLRQIFQQFGKDLLATHGNDIQV", "values": [
      {"measurement": "Effect on Hsp90 ATPase activity (in words)", "setting": "[5]", "value": "activate Hsp90 ATPase activity, but to a lesser extent than the full length Aha1 polypeptide"}
    ]}
  ]
}
